Assay results published in PMC9859762.

Target: thin filaments of membrane-permeabilized (skinned) porcine ventricular myofibrils (pig (endogenous in porcine ventricular myofibrils)) (UniProt P42639)
Assay: co-sedimentation; 23 ± 3 uM IANBD-labeled Tn incubated 4 h on ice (or overnight) with skinned porcine myofibrils (~20 mg/ml) in hypotonic rigor buffer with 6 mM ATP and 1 mg/ml BSA; myofibrils pelleted at 1,000 x g and washed; labeled cTnC relative to total cTnC on 18% SDS-PAGE (fluorescence against Coomassie)

UniProt P42639, sequence (P42639 whole entry, looked up): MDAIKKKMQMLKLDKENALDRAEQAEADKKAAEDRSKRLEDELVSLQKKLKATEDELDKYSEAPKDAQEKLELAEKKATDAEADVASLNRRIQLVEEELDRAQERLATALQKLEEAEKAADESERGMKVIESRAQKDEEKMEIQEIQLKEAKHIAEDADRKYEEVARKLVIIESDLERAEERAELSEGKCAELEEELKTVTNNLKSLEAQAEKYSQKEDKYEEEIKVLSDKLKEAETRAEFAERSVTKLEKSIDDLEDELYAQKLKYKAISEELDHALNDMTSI

Q: For “human recombinant troponin complex containing IANBD-cTnC^T53C, wild-type cTnI and wild-type cTnT (from UniProt P63316 1-161; P19429 1-210)”, which extent of exchange (labeled cTnC relative to total cTnC in the myofibrils) is on record?
A: The extent of exchange (labeled cTnC relative to total cTnC in the myofibrils) was 41%.
